Measurements reported in patent publication US20120252071A1 (ROCHE DIAGNOSTICS OPERATIONS, published 2012).
Where a chain is given by its changes, count along the chain named. Numbers in names are those of the source.

B1: T7 variant #8 [Cys125Ser, Cys347Ser, Cys492Ser, Cys515Ser, Cys723Ser, Cys839Ser] including His6-tag (enzyme)
chain: MNTINIAKNDFSDIELAAIPFNTLADHYGERLAREQLALEHESYEMGEARFRKMFERQLKAGEVADNAAAKPLITTLLPKMIARINDWFEEVKAKRGKRPTAFQFLQEIKPEAVAYITIKTTLASLTSADNTTVQAVASAIGRAIEDEARFGRIRDLEAKHFKKNVEEQLNKRVGHVYKKAFMQVVEADMLSKGLLGGEAWSSWHKEDSIHVGVRCIEMLIESTGMVSLHRQNAGVVGQDSETIELAPEYAEAIATRAGALAGISPMFQPCVVPPKPWTGITGGGYWANGRRPLALVRTHSKKALMRYEDVYMPEVYKAINIAQNTAWKINKKVLAVANVITKWKHSPVEDIPAIEREELPMKPEDIDMNPEALTAWKRAAAAVYRKDKARKSRRISLEFMLEQANKFANHKAIWFPYNMDWRGRVYAVSMFNPQGNDMTKGLLTLAKGKPIGKEGYYWLKIHGANCAGVDKVPFPERIKFIEENHENIMASAKSPLENTWWAEQDSPFCFLAFSFEYAGVQHHGLSYNCSLPLAFDGSCSGIQHFSAMLRDEVGGRAVNLLPSETVQDIYGIVAKKVNEILQADAINGTDNEVVTVTDENTGEISEKVKLGTKALAGQWLAYGVTRSVTKRSVMTLAYGSKEFGFRQQVLEDTIQPAIDSGKGLMFTQPNQAAGYMAKLIWESVSVTVVAAVEAMNWLKSAAKLLAAEVKDKKTGEILRKRSAVHWVTPDGFPVWQEYKKPIQTRLNLMFLGQFRLQPTINTNKDSEIDAHKQESGIAPNFVHSQDGSHLRKTVVWAHEKYGIESFALIHDSFGTIPADAANLFKAVRETMVDTYESSDVLADFYDQFADQLHESQLDKMPALPAKGNLNLRDILESDFAFA
notes: also called six-fold mutant; sextuple T7 variant; not shown: N-terminal His6-tag with linker
B2: T7 variant #26 [Cys723Ser, Ala702Val, Val795Ile] (enzyme)
chain: B1 chain with S125C, S347C, S492C, S515C, A702V, V795I, S839C
notes: not shown: N-terminal His-tag
B3: T7 variant #28 [Cys723Ser, Val426Leu, Ala702Val] (enzyme)
chain: B1 chain with S125C, S347C, V426L, S492C, S515C, A702V, S839C
notes: not shown: N-terminal His-tag
B4: T7 variant #30 [Cys723Ser, Val426Leu, Val795Ile] (enzyme)
chain: B1 chain with S125C, S347C, V426L, S492C, S515C, V795I, S839C
notes: not shown: N-terminal His-tag
B5: T7 variant #32 [Cys723Ser, Val426Leu, Ala702Val, Val795Ile] (enzyme)
chain: B1 chain with S125C, S347C, V426L, S492C, S515C, A702V, V795I, S839C
notes: not shown: N-terminal His-tag
B6: T7 variant #33 [Cys125Ser, Cys347Ser, Cys492Ser, Cys515Ser, Cys723Ser, Cys839Ser, Val426Leu, Ala702Val, Val795Ile] (enzyme)
chain: B1 chain with V426L, A702V, V795I
notes: not shown: N-terminal His-tag
B7: T7 variant #35 [Cys723Ser, Val426Leu, Val650Leu, Ala702Val, Val795Ile] (enzyme)
chain: B1 chain with S125C, S347C, V426L, S492C, S515C, V650L, A702V, V795I, S839C
notes: not shown: N-terminal His-tag
B8: T7 variant #36 [C125S, C347S, C492S, C515S, C723S, C839S, V426L, V650L, A702V, V795I] (enzyme)
chain: B1 chain with V426L, V650L, A702V, V795I
notes: not shown: N-terminal His-tag

Target: the molecule itself
Assay: non-reducing SDS-PAGE after 16 h at 37 C without reducing agent (self-association by disulfide bonds)
Procedure: Samples of T7 variants were prepared according to a procedure described in Example 4. T7 RNA polymerase and variants thereof were analyzed by gel electrophoresis on polyacrylamide gels containing sodium dodecylsulphate (SDS). Gradient gels (NuPAGE, 4-12%, Bis-Tris Gel, Invitrogen) were used. Typically, protein samples (0.26 mg/ml, 18 μl) were mixed with 6 μl of NuPAGE LDS (Lithium dodecyl sulfate; LDS may also be substituted by sodium dodecyl sulfate) sample buffer, (4×, Invitrogen). After heating for 2 min at 85° C., samples (20 μl) were applied on the gel. The total amount of protein in a single lane of the gel was between 1 μg and 3 μg. Gels were run in SDS Running Buffer (1×MES, Invitrogen) at 200 V for 1 hour.
Further, samples of wild-type T7 and T7 variants (0.2 to 0.3 mg/ml each) were incubated at 37° C. for 16 hours in 25 mM Tris/HCl, pH 7.5 (adjusted at 25° C.), 0.1 mM EDTA, 100 mM NaCl. Aliquots were removed and applied on the SDS gels under reducing conditions or under non-reducing conditions. After incubation a sample of each treated preparation was subjected to SDS polyacrylamide gel electrophoresis as described in Example 5. Results are depicted in FIG. 2 (reducing reagents absent) and FIG. 3 (10 mM DTT added).
With reference to FIG. 2 (reducing reagents absent), and in reference to Examples 5, 6, and 7, a stained SDS polyacrylamide gel is shown. […]

| Protein | binding result |
| --- | --- |
| B1 | no binding (tested: 2.9 µg of protein per lane) |

Target: the molecule itself
Assay: non-reducing SDS-PAGE (self-association by disulfide bonds)

| Protein | binding result |
| --- | --- |
| B2 | no binding |
| B3 | no binding |
| B4 | no binding |
| B5 | no binding |
| B6 | no binding |
| B7 | no binding |
| B8 | no binding |
